Experimental data from US20240010722A1 (published 2024).
Positions count from the first letter of the chain named.

T1: human MAdCAM (human, UniProt Q13477 19-317, limits assumed)
T1 construct: also called huMAdCAM; human MAdCAM-1
T1 sequence (looked up): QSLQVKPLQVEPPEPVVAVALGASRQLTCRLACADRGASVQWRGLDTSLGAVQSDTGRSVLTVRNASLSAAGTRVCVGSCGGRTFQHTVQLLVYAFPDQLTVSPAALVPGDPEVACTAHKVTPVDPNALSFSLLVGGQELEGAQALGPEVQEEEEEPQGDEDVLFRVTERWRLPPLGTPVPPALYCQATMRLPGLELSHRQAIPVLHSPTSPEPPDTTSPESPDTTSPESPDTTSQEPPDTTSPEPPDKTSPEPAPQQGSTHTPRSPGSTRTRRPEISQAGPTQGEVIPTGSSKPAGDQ

B1: PMAB9 (bispecific antibody, human IgG1, kappa)
heavy: EVQLLESGGGLVQPGGSLRLSCAASGFTFSNSDMSWVRQAPGKGLEWVSGITISGGSTYYADSVKGRFTISRDNSKNTLYLQMNSLRAEDTAVYYCARGRGGSGWLDYWGQGTLVTVSSASTKGPSVFPLAPSSKSTSGGTAALGCLVKDYFPEPVTVSWNSGALTSGVHTFPAVLQSSGLYSLSSVVTVPSSSLGTQTYICNVNHKPSNTKVDKKVEPKSCDKTHTCPPCPAPEAAGAPSVFLFPPKPKDTLMISRTPEVTCVVVDVSHEDPEVKFNWYVDGVEVHNAKTKPREEQYNSTYRVVSVLTVLHQDWLNGKEYKCKVSNKALPAPIEKTISKAKGQPREPQVYTLPPSREEMTKNQVSLTCLVKGFYPSDIAVEWESNGQPENNYKTTPPVLDSDGSFFLYSKLTVDKSRWQQGNVFSCSVMHEALHNHYTQKSLSLSPGGGGGSGGGGSGGGGSEVQLLESGGGLVQPGGSLRLSCAASGFTFSSYWMHWVRQAPGKGLEWISAISGSGGSTYYADSVKGRFTISRDNSKNTLYLQMNSLRAEDTAVYYCARDRPYYYYMDVWGKGTTVTVSSGGGGSGGGGSGGGGSGGGGSDIQMTQSPSSLSASVGDRVTITCRASQSISRSLAWYQQKPGKAPKLLIYAASSLQSGVPSRFSGSGSGTDFTLTISSLQPEDFATYYCQQYKSYPVTFGQGTKVEIK
light: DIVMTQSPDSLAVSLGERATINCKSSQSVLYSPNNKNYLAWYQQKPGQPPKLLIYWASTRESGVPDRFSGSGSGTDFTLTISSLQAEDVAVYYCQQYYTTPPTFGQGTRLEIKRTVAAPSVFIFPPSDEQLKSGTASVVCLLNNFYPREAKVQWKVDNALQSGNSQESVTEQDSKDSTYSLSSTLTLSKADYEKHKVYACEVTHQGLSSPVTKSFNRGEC
B2: PMAB51 (bispecific antibody, human IgG1, kappa)
heavy: B1 heavy with S494D, Y495F, A513Y, S517D, G518S, S520Y, Y522N, Y568K, I631V
light: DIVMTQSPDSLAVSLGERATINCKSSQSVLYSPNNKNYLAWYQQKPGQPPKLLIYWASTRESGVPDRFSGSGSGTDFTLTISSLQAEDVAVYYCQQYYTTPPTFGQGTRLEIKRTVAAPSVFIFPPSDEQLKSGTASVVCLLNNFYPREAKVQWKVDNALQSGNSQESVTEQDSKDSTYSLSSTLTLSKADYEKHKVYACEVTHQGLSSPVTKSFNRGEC
B3: PMAB39 (bispecific antibody, human IgG1, kappa)
heavy: B1 heavy with S494D, Y495F, A513Y, S517D, G518S, S520Y, Y522N, I631V, A636N
light: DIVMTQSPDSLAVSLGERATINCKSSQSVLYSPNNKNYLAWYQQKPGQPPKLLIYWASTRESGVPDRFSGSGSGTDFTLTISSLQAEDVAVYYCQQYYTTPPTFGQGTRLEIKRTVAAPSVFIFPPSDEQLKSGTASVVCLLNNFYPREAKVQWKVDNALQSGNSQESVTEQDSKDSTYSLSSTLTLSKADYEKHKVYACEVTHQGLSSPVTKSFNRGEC
B4: PMAB13 (bispecific antibody, human IgG1, kappa)
heavy: B1 heavy with I511V
light: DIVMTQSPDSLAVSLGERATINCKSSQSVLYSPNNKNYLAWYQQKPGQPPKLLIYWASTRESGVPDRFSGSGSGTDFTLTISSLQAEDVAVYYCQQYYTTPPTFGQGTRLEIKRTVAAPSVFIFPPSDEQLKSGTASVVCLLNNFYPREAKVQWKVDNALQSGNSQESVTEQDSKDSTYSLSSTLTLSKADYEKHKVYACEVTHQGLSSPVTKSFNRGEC
B5: PMAB49 (bispecific antibody, human IgG1, kappa)
heavy: B1 heavy with S494D, Y495F, A513Y, S517D, G518S, S520Y, Y522N, Y568D, I631V
light: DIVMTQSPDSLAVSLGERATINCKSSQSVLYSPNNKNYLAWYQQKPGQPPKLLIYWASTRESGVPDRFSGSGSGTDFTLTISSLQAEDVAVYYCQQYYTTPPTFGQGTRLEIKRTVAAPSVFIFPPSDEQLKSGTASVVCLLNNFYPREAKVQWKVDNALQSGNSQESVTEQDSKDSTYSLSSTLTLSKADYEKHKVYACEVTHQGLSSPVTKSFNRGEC
B6: PMAB43 (bispecific antibody, human IgG1, kappa)
heavy: B1 heavy with S494D, Y495F, A513Y, S517D, G518S, S520Y, Y522N, I631V, V698R
light: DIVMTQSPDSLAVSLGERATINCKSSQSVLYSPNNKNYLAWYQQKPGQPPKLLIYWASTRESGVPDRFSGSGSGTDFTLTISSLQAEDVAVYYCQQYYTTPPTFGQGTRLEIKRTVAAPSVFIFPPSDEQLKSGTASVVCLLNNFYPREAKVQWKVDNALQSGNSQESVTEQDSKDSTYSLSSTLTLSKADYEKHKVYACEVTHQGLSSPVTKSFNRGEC
B7: PMAB21 (bispecific antibody, human IgG1, kappa)
heavy: B1 heavy with S494D, Y495F, W496A, A513Y, S517D, G518S, S520Y, Y522N, I631V
light: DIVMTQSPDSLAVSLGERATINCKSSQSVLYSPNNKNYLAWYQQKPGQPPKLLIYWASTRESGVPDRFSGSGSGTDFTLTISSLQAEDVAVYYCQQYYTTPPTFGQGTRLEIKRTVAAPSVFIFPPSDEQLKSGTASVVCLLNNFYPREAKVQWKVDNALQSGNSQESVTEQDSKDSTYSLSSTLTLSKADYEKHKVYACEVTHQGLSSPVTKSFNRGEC
B8: PMAB12 (bispecific antibody, human IgG1, kappa)
heavy: B1 heavy with I511V, Y566G
light: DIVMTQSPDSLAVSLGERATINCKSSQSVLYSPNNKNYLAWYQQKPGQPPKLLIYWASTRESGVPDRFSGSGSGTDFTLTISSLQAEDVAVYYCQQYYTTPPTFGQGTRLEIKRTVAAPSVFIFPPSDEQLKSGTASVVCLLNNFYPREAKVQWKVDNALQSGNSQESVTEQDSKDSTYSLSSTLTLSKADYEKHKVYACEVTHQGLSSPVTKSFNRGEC
B9: PMAB10 (bispecific antibody, human IgG1, kappa)
heavy: B1 heavy with I511V, Y566G, R633S
light: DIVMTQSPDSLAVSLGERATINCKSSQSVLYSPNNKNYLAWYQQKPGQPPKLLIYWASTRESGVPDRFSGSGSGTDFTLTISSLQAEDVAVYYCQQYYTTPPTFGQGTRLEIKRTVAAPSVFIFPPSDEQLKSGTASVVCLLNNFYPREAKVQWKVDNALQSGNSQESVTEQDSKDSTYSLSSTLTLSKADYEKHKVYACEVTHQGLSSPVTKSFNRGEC
B10: PMAB47 (bispecific antibody, human IgG1, kappa)
heavy: B1 heavy with S494D, Y495F, A513Y, S517D, G518S, S520Y, Y522N, Y566N, I631V
light: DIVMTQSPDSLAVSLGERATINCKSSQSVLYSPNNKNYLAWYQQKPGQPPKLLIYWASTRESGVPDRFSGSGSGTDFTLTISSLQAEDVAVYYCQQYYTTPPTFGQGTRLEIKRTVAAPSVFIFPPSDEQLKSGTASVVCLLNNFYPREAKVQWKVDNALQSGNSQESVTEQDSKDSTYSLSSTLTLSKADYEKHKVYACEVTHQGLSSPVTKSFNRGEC
B11: PMAB11 (bispecific antibody, human IgG1, kappa)
heavy: B1 heavy with I511V, R633S
light: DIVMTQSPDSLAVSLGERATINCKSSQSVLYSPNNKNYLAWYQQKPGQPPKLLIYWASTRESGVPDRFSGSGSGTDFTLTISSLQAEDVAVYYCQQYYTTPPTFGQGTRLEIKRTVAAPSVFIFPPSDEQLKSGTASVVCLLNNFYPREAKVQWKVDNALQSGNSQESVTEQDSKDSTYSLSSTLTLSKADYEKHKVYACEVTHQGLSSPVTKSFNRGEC
B12: PMAB46 (bispecific antibody, human IgG1, kappa)
heavy: B1 heavy with S494D, Y495F, A513Y, S517D, G518S, S520Y, Y522N, Y566G, I631V
light: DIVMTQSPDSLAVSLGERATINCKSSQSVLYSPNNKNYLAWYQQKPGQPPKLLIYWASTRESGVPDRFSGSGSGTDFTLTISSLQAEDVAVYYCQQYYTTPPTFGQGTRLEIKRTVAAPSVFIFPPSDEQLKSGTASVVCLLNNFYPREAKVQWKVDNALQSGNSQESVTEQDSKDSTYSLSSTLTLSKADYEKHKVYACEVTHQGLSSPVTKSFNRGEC
B13: PMAB38 (bispecific antibody, human IgG1, kappa)
heavy: B1 heavy with S494D, Y495F, A513Y, S517D, G518S, S520Y, Y522N, I631V, S634Y
light: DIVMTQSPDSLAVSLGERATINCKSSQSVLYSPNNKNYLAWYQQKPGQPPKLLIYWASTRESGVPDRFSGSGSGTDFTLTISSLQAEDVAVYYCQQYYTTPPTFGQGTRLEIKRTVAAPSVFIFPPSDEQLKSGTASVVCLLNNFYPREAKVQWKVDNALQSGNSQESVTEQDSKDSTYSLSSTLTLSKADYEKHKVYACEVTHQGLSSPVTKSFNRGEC

target: T1, human MAdCAM; assay: BLI (Octet), binder on AHC tips
Summary of the method: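 Kinetic rates and the dissociation constant come from a global one-to-one fit, performed in the Octet data analysis software, of binding measured on an Octet96 RED with anti-human IgG Fc biosensors. Test article at 10 μg/mL in assay buffer was captured on the tips for 240 s. MAdCAM-1, serially diluted over seven points from 200 nM down to 3.13 nM, then associated for 120 s before 120 s of dissociation in assay buffer.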

Row | Kd | koff | kon | Binder | binding result
1 | 159 nM | 0.0725 s⁻¹ | 455000 M⁻¹ s⁻¹ | B1 | –
2 | 93.5 nM | 0.00952 s⁻¹ | 115000 M⁻¹ s⁻¹ | B2 | –
3 | – | – | – | B3 | no binding (tested: 200 nM (top of the dilution series))
4 | 132 nM | 0.0717 s⁻¹ | 542000 M⁻¹ s⁻¹ | B4 | –
5 | 142 nM | 0.0125 s⁻¹ | 87900 M⁻¹ s⁻¹ | B5 | –
6 | – | – | – | B6 | no binding (tested: 200 nM (top of the dilution series))
7 | – | – | – | B7 | no binding (tested: 300 nM (top of the dilution series))
8 | 63.3 nM | 0.0464 s⁻¹ | 733000 M⁻¹ s⁻¹ | B8 | –
9 | 146 nM | 0.0967 s⁻¹ | 662000 M⁻¹ s⁻¹ | B9 | –
10 | 219 nM | 0.072 s⁻¹ | 329000 M⁻¹ s⁻¹ | B10 | –
11 | 466 nM | 0.195 s⁻¹ | 419000 M⁻¹ s⁻¹ | B11 | –
12 | 37900 nM | 0.309 s⁻¹ | 8160 M⁻¹ s⁻¹ | B12 | –
13 | – | – | – | B13 | no binding (tested: 200 nM (top of the dilution series))
